Assay results published in patent US9937235B2, “Lipidated peptides as anti-obesity agents” (USTAV ORGANICKE CHEMIE A BIOCHEMIE AKADEMIE VED CR, V.V.I, priority 2012, dated 2018).
Where a SMILES comes first, the peptide text is derived from it. Where no end group is shown, it is not given here. [ ]: non-standard residue; d: D form. The star is where a group is joined. Phe(3,4-Cl2) = N[C@@H](Cc1ccc(Cl)c(Cl)c1)C(=O)O; Palmitoyl = CCCCCCCCCCCCCCCC(=O)*; Myristoyl = CCCCCCCCCCCCCC(=O)*; Decanoyl = CCCCCCCCCC(=O)*; Nle = CCCC[C@H](N)C(=O)O; Octanoyl = CCCCCCCC(=O)*

T1: rat PrRP receptor in RC-4B/C cells (rat, UniProt Q64121 1-370)
T1 construct: whole, on cells; also called the rat receptor; GPR10
T1 sequence (looked up): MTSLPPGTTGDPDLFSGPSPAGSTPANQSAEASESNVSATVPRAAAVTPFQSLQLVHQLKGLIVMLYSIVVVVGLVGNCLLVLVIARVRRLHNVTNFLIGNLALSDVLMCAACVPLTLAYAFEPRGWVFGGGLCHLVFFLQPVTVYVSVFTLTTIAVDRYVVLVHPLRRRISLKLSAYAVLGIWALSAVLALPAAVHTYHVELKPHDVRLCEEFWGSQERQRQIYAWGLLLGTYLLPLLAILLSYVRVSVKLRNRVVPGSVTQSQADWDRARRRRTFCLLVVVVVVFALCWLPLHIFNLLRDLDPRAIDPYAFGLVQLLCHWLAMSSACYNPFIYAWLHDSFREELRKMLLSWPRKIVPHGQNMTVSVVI

T2: human PrRP receptor, GPR10, transfected in CHO cells (human, UniProt P49683 1-370)
T2 construct: whole, on cells; also called human GPR10 receptor; the human receptor GPR10 in CHO cells
T2 sequence (looked up): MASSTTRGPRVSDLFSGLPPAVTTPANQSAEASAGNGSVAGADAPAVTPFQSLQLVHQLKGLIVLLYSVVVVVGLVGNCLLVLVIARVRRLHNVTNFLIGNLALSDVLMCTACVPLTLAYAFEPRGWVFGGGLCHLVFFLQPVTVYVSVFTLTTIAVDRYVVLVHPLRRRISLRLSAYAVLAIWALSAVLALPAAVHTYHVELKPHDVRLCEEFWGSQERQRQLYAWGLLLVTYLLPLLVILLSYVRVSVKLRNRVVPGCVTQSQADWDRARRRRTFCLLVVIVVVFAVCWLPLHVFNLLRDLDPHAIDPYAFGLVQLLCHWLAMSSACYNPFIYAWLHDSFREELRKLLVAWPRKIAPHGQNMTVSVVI

B1: analog no. 56 (peptide)
peptide: Myristoyl-SRTHRHSMEIRTPDINPAWYASRGIRPVGRF-NH2
SMILES: CCCCCCCCCCCCCC(=O)N[C@@H](CO)C(=O)N[C@@H](CCCNC(=N)N)C(=O)N[C@H](C(=O)N[C@@H](Cc1c[nH]cn1)C(=O)N[C@@H](CCCNC(=N)N)C(=O)N[C@@H](Cc1c[nH]cn1)C(=O)N[C@@H](CO)C(=O)N[C@@H](CCSC)C(=O)N[C@@H](CCC(=O)O)C(=O)N[C@H](C(=O)N[C@@H](CCCNC(=N)N)C(=O)N[C@H](C(=O)N1CCC[C@H]1C(=O)N[C@@H](CC(=O)O)C(=O)N[C@H](C(=O)N[C@@H](CC(N)=O)C(=O)N1CCC[C@H]1C(=O)N[C@@H](C)C(=O)N[C@@H](Cc1c[nH]c2ccccc12)C(=O)N[C@@H](Cc1ccc(O)cc1)C(=O)N[C@@H](C)C(=O)N[C@@H](CO)C(=O)N[C@@H](CCCNC(=N)N)C(=O)NCC(=O)N[C@H](C(=O)N[C@@H](CCCNC(=N)N)C(=O)N1CCC[C@H]1C(=O)N[C@H](C(=O)NCC(=O)N[C@@H](CCCNC(=N)N)C(=O)N[C@@H](Cc1ccccc1)C(N)=O)C(C)C)[C@@H](C)CC)[C@@H](C)CC)[C@@H](C)O)[C@@H](C)CC)[C@@H](C)O
B2: analog no. 60 (peptide)
peptide: Myristoyl-SRAHQHSMETRTPDINPAWYTGRGIRPVGRF-NH2
SMILES: CCCCCCCCCCCCCC(=O)N[C@@H](CO)C(=O)N[C@@H](CCCNC(=N)N)C(=O)N[C@@H](C)C(=O)N[C@@H](Cc1c[nH]cn1)C(=O)N[C@@H](CCC(N)=O)C(=O)N[C@@H](Cc1c[nH]cn1)C(=O)N[C@@H](CO)C(=O)N[C@@H](CCSC)C(=O)N[C@@H](CCC(=O)O)C(=O)N[C@H](C(=O)N[C@@H](CCCNC(=N)N)C(=O)N[C@H](C(=O)N1CCC[C@H]1C(=O)N[C@@H](CC(=O)O)C(=O)N[C@H](C(=O)N[C@@H](CC(N)=O)C(=O)N1CCC[C@H]1C(=O)N[C@@H](C)C(=O)N[C@@H](Cc1c[nH]c2ccccc12)C(=O)N[C@@H](Cc1ccc(O)cc1)C(=O)N[C@H](C(=O)NCC(=O)N[C@@H](CCCNC(=N)N)C(=O)NCC(=O)N[C@H](C(=O)N[C@@H](CCCNC(=N)N)C(=O)N1CCC[C@H]1C(=O)N[C@H](C(=O)NCC(=O)N[C@@H](CCCNC(=N)N)C(=O)N[C@@H](Cc1ccccc1)C(N)=O)C(C)C)[C@@H](C)CC)[C@@H](C)O)[C@@H](C)CC)[C@@H](C)O)[C@@H](C)O
B3: analog no. 61 (peptide)
peptide: Palmitoyl-SRAHQHSMETRTPDINPAWYTGRGIRPVGRF-NH2
SMILES: CCCCCCCCCCCCCCCC(=O)N[C@@H](CO)C(=O)N[C@@H](CCCNC(=N)N)C(=O)N[C@@H](C)C(=O)N[C@@H](Cc1c[nH]cn1)C(=O)N[C@@H](CCC(N)=O)C(=O)N[C@@H](Cc1c[nH]cn1)C(=O)N[C@@H](CO)C(=O)N[C@@H](CCSC)C(=O)N[C@@H](CCC(=O)O)C(=O)N[C@H](C(=O)N[C@@H](CCCNC(=N)N)C(=O)N[C@H](C(=O)N1CCC[C@H]1C(=O)N[C@@H](CC(=O)O)C(=O)N[C@H](C(=O)N[C@@H](CC(N)=O)C(=O)N1CCC[C@H]1C(=O)N[C@@H](C)C(=O)N[C@@H](Cc1c[nH]c2ccccc12)C(=O)N[C@@H](Cc1ccc(O)cc1)C(=O)N[C@H](C(=O)NCC(=O)N[C@@H](CCCNC(=N)N)C(=O)NCC(=O)N[C@H](C(=O)N[C@@H](CCCNC(=N)N)C(=O)N1CCC[C@H]1C(=O)N[C@H](C(=O)NCC(=O)N[C@@H](CCCNC(=N)N)C(=O)N[C@@H](Cc1ccccc1)C(N)=O)C(C)C)[C@@H](C)CC)[C@@H](C)O)[C@@H](C)CC)[C@@H](C)O)[C@@H](C)O
B4: analog no. 53 (peptide)
peptide: Decanoyl-TPDINPAWYASRGIRPVGRF-NH2
SMILES: CCCCCCCCCC(=O)N[C@H](C(=O)N1CCC[C@H]1C(=O)N[C@@H](CC(=O)O)C(=O)N[C@H](C(=O)N[C@@H](CC(N)=O)C(=O)N1CCC[C@H]1C(=O)N[C@@H](C)C(=O)N[C@@H](Cc1c[nH]c2ccccc12)C(=O)N[C@@H](Cc1ccc(O)cc1)C(=O)N[C@@H](C)C(=O)N[C@@H](CO)C(=O)N[C@@H](CCCNC(=N)N)C(=O)NCC(=O)N[C@H](C(=O)N[C@@H](CCCNC(=N)N)C(=O)N1CCC[C@H]1C(=O)N[C@H](C(=O)NCC(=O)N[C@@H](CCCNC(=N)N)C(=O)N[C@@H](Cc1ccccc1)C(N)=O)C(C)C)[C@@H](C)CC)[C@@H](C)CC)[C@@H](C)O
B5: analog no. 52 (peptide)
peptide: Octanoyl-TPDINPAWYASRGIRPVGRF-NH2
SMILES: CCCCCCCC(=O)N[C@H](C(=O)N1CCC[C@H]1C(=O)N[C@@H](CC(=O)O)C(=O)N[C@H](C(=O)N[C@@H](CC(N)=O)C(=O)N1CCC[C@H]1C(=O)N[C@@H](C)C(=O)N[C@@H](Cc1c[nH]c2ccccc12)C(=O)N[C@@H](Cc1ccc(O)cc1)C(=O)N[C@@H](C)C(=O)N[C@@H](CO)C(=O)N[C@@H](CCCNC(=N)N)C(=O)NCC(=O)N[C@H](C(=O)N[C@@H](CCCNC(=N)N)C(=O)N1CCC[C@H]1C(=O)N[C@H](C(=O)NCC(=O)N[C@@H](CCCNC(=N)N)C(=O)N[C@@H](Cc1ccccc1)C(N)=O)C(C)C)[C@@H](C)CC)[C@@H](C)CC)[C@@H](C)O

System: fasted C57BL/6 mice
Assay: Food intake in fasted mice after SC administration
Format: in vivo, mouse
Conditions: fasted C57BL/6 mice, 5 mg/kg SC, 45 min
Procedure: Male C57BL/6 mice (An Lab, Prague 4) were bred in the accredited animal facility in the Institute of Organic Chemistry and Biochemistry, Czech Academy of Sciences, Prague, at the Institute of Molecular Genetics, Prague 4, at the temperature of 22±2° C. with access to food and water ad libitum. The day/night cycle was 12/12 hours (light turned on at 6:00 am). Animals were treated according to the Animal Protection Act (Act No. 246/1992). The males were fed standard chow diet St-1 (Mlýn Kocanda, Praha, Czech Republic) which contained 66% saccharides, 25% proteins and 9% lipids with a caloric value of 3.4 kcal/g.
The food was withdrawn 17 hours prior to injection of lipidated peptide and free access to water was maintained. The administration of saline, PrRP or lipidated analogs was performed either by SC injection at doses of 1-10 mg/kg (volume 0.2 ml/mouse), or by ICV using infusion pump (cannulae were inserted into the third brain ventricle 4 days before the experiment following the procedure of Maixnerová et al. (Maixnerová et al., 2011)). The single dose of peptide was 4 nmol/mouse (5 μl/mouse).
Fifteen minutes after the lipidated peptide administration, the mice were given pre-weighed food. The food was then weighed every 30 minutes for 5-10 hours. The administration of every dose was performed at least twice and one group of mice consisted of at least 6 mice. The results were presented as % of food intake as compared with the control group injected with saline.
Statistical evaluation was performed using program Graph-Pad Prism Software (San Diego, Calif., USA), and the one-way ANOVA with a subsequent Dunnettovým post-hoc test. The difference in food intake between mice injected with saline and mice injected with the examined peptide were considered statistically significant at P<0.05.

In the case of `CCCCCCCCCCCCCC(=O)N[C@@H](CO)C(=O)N[C@@H](CCCNC(=N)N)C(=O)N[C@@H](C)C(=O)N[C@@H](Cc1c[nH]cn1)C(=O)N[C@@H](CCC(N)=O)C(=O)N[C@@H](Cc1c[nH]cn1)C(=O)N[C@@H](CO)C(=O)N[C@@H](CCCC)C(=O)N[C@@H](CCC(=O)O)C(=O)N[C@H](C(=O)N[C@@H](CCCNC(=N)N)C(=O)N[C@H](C(=O)N1CCC[C@H]1C(=O)N[C@@H](CC(=O)O)C(=O)N[C@H](C(=O)N[C@@H](CC(N)=O)C(=O)N1CCC[C@H]1C(=O)N[C@@H](C)C(=O)N[C@@H](Cc1c[nH]c2ccccc12)C(=O)N[C@@H](Cc1ccc(O)cc1)C(=O)N[C@H](C(=O)NCC(=O)N[C@@H](CCCNC(=N)N)C(=O)NCC(=O)N[C@H](C(=O)N[C@@H](CCCNC(=N)N)C(=O)N1CCC[C@H]1C(=O)N[C@H](C(=O)NCC(=O)N[C@@H](CCCNC(=N)N)C(=O)N[C@@H](Cc1ccc(Cl)c(Cl)c1)C(N)=O)C(C)C)[C@@H](C)CC)[C@@H](C)O)[C@@H](C)CC)[C@@H](C)O)[C@@H](C)O` [Analog 25] (Myristoyl-SRAHQHS[Nle]ETRTPDINPAWYTGRGIRPVGR[Phe(3,4-Cl2)]-NH2), the “Food intake in mice (5 mg/kg SC) % saline-treated group (45 min)” value is reported as 13%.

Molecular target: T1, rat PrRP receptor in RC-4B/C cells
Assay: competition with 125I-rat PrRP31 on RC-4B/C cells
Conditions: not given
Procedure: The rat pituitary cell line RC-4B/C (ATCC, Manassas, USA) was grown on 24-well plates which had their bottom coated with polyethyleneimine. The cells were grown to the optimal density of 300-450 thousand per well.
(§1) Plates were incubated for 60 minutes at room temperature. After incubation, the cells were solubilized in 0.1 mol/l solution of NaOH and the radioactivity bound to the cells was counted using a γ-counter. The experiments were performed in duplicate and repeated at least three times.
For evaluation of competitive binding experiments, the program Graph Pad Prism Software (San Diego, Calif., USA) was used. A method of nonlinear regression assuming one-site binding was used.

Compared with B1, Palmitoyl-SRTHRHSMEIRTPDINPAWYASRGIRPVGRF-NH2 [analog no. 57] is 3.4-fold lower in Ki: 0.00095 µM for the first, 0.00028 µM for the second.

Going from SHQRPADTHWYPRG[Nle]FPTIGRITARNGEVSR (printed without a C-terminal amide) [analog no. 30] to B2, the Ki falls from 1320 µM to 0.00075 µM. The second binds more tightly here.

First: B3
Second: TPDINPAWYASRGIRPVGRF-NH2 [analog no. 51]
The Ki of the first is 5.8-fold lower: 0.00041 µM for the first, 0.00238 µM for the second. The first binds more tightly here.

Work on Myristoyl-[code f][code r]GVPRIGRGTYWAPNIDPT-NH2 [analog no. 37] yielded a Ki of 0.364 µM.

Molecular target: T2, human PrRP receptor, GPR10, transfected …
Assay: competition with 125I-human PrRP31 on CHO cells with transfected human GPR10
Conditions: not given
Procedure: CHO cells with transfected human PrRP receptor, GPR10 (Perkin Elmer, USA) were grown on 24-well plates coated with polyethyleneimine. The cells were grown to the optimal density of 40-80 thousand cells per well.
as §1

B4 and B5 are within 1.5-fold of each other in Ki: 2.41 nM for the first, 3.02 nM for the second.
